Where two headings read alike, the source gives them in different places. *1 amine or outer side, *2 acyl side, *3 side chain or, on linkers, in order; H or OH if unused. Bridges are numbered along the chain shown (N, C = ends). Primed or numbered codes have the meaning given here. Side-chain parts run from the residue outwards. [ ]: non-standard residue; d: D form. Phe(4-OMe)(3) = O-methyl-L-tyrosine (4-methoxy-L-phenylalanine), COc1ccc(C[C@H](N[*:1])C(=O)[*:2])cc1; Phe(4-OMe) = 4-methoxy-L-phenylalanine (O-methyl-L-tyrosine), COc1ccc(C[C@H](N[*:1])C(=O)[*:2])cc1; Phe(4-OMe)(4) = O-methyl-L-tyrosine, COc1ccc(C[C@H](N[*:1])C(=O)[*:2])cc1; 2Nal = N[C@@H](Cc1ccc2ccccc2c1)C(=O)O; AEF = NCCOc1ccc(C[C@H](N)C(=O)O)cc1; pGlu = O=C1CC[C@@H](C(=O)O)N1; αMeL = CC(C)C[C@](C)(N)C(=O)O; Suc = O=C(CCC(=O)[*:2])[*:1]; αMeK = C[C@](N)(CCCCN)C(=O)O; PEG2′ = not defined here; Abu = CC[C@H](N)C(=O)O; Dap = NC[C@H](N)C(=O)O; Aib = CC(C)(N)C(=O)O
T1: Rat IL-23R_huFC (rat, UniProt F1LX96 39-369)
T1 sequence: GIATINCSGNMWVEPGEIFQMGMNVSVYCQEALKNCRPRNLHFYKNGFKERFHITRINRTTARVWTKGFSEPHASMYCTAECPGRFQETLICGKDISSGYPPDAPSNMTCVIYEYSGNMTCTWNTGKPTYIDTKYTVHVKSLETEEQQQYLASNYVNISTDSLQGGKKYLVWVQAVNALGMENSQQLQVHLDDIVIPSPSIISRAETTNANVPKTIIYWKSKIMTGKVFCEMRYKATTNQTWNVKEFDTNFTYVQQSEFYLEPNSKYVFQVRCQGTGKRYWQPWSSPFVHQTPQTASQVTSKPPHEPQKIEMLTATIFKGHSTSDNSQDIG

T2: IL23R_huFC (human, UniProt Q5VWK5 24-353)
T2 sequence (looked up): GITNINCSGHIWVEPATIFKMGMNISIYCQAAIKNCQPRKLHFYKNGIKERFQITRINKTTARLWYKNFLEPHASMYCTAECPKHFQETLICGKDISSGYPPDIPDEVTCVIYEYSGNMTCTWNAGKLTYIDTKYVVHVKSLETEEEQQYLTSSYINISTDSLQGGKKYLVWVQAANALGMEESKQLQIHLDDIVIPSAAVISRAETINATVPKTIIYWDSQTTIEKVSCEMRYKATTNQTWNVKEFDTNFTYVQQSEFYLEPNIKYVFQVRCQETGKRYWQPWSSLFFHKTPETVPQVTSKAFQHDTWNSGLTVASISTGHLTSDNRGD

T3: IL-23R on human cells (IL-23R-expressing DB cells; human NK cells) (human, UniProt Q5VWK5 24-629)
T3 sequence (looked up): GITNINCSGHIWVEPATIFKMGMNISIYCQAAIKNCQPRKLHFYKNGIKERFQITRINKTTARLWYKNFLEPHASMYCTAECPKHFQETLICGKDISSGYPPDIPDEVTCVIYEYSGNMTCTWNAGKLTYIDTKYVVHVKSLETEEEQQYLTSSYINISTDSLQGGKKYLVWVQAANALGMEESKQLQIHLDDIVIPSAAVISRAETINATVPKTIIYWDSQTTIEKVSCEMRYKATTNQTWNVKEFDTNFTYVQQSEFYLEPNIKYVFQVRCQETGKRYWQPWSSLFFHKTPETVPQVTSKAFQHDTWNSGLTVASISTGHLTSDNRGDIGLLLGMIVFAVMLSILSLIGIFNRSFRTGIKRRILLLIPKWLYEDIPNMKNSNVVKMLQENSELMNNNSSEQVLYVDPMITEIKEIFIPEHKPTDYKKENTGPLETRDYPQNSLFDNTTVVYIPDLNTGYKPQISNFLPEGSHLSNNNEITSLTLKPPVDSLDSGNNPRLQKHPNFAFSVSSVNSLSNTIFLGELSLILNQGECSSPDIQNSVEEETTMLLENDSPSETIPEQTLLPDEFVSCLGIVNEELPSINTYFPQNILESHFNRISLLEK


Columns and labels:
Rat IL-23R_huFC [1] = target: T1, Rat IL-23R_huFC; assay: rat IL-23R competitive binding ELISA
IL23R_huFC [2] = target: T2, IL23R_huFC; assay: human ELISA vs IL-23
[3] = target: T3, IL-23R on human cells …; assay: cell-based or functional assay
Rat IL-23R_huFC [4] = target: Rat IL-23R_huFC (rat); assay: rat ELISA vs IL-23
IL23R_huFC [5] = target: T2, IL23R_huFC; assay: human ELISA vs IL-23; remark: listed apart in the source
Rat IL-23R_huFC [6] = target: Rat IL-23R_huFC (rat); assay: rat ELISA vs IL-23; remark: listed apart in the source

| Binder | IC50 (Rat IL-23R_huFC [1]) [nM] | pStat3 HTRF IC50 [3] [nM] | IC50 (IL23R_huFC [5]) [nM] | other results |
| --- | --- | --- | --- | --- |
| XQTWQXFXKKNG (Ac; Pen-Pen disulfide; Phe(4-OMe); 1-Nal; α-MeLys; Lys(Ac); NH2) [Ac-[Pen]-QTWQ-[Pen]-[Phe(4-OMe)]-[1-Nal]-[α-MeLys]-[Lys(Ac)]-NG-NH2] | 100 to 1000 |  |  |  |
| XRTWQXYWRKFGXK (Ac; Pen-Pen disulfide; AEA; (D)-Lys; NH2) [Ac-[Pen]-RTWQ-[Pen]-YWRKFG-[AEA]-[(D)-Lys]-NH2] | 25 to 100 |  |  |  |
| Ac-[dK][Abu]QTWQC[Phe(4-OMe)(4)][2Nal][αMeL]ENG-NH2 (thioether 2-7) [Ac-(D)Lys-[Cyclo-[[Abu]-QTWQC]]-[Phe(4-OMe)]-[2-Nal]-[α-MeLeu]-ENG-NH2] |  | < 10 |  | IC50 (IL23R_huFC [2]): < 10 nM; IC50 (Rat IL-23R_huFC [4]): 10 to 25 nM |
| XQTWQXFXKKNG (Ac; Pen-Pen disulfide; Phe(4-OMe); 2-Nal; α-MeLys; Lys(Ac); NH2) [Ac-[Pen]-QTWQ-[Pen]-[Phe(4-OMe)]-[2-Nal]-[α-MeLys]-[Lys(Ac)]-NG-NH2] | 25 to 100 |  |  |  |
| XQTWQXFXKKNN (Ac; Pen-Pen disulfide; Phe[4-(2-aminoethoxy)]; 2-Nal; α-MeLys; Lys(Ac); NH2) [Ac-[Pen]-QTWQ-[Pen]-[Phe[4-(2-aminoethoxy)]-[2-Nal]-[α-MeLys]-[Lys(Ac)]-NN-NH2] | 10 to 25 |  |  |  |
| XQTWQXFXVKNN (Ac; Pen-Pen disulfide; Phe(4-CONH2); 2-Nal; α-MeVal; Lys(Ac); NH2) [Ac-[Pen]-QTWQ-[Pen]-[Phe(4-CONH2)]-[2-Nal]-[α-MeVal]-[Lys(Ac)]-NN-NH2] | 10 to 25 |  |  |  |
| XQTWQXFXKKNN (Ac; Pen-Pen disulfide; Phe(4-CONH2); 2-Nal; α-MeLys; Lys(Ac); NH2) [Ac-[Pen]-QTWQ-[Pen]-[Phe(4-CONH2)]-[2-Nal]-[α-MeLys]-[Lys(Ac)]-NN-NH2] | 25 to 100 |  |  |  |
| XQTWQXFXKKNG (N-terminal 4-fluorophenylacetic acid; Pen-Pen disulfide; Phe(4-OMe); 2-Nal; α-MeLys; Lys(Ac); NH2) [4-fluorophenylacetic acid-[Pen]-QTWQ-[Pen]-[Phe(4-OMe)]-[2-Nal]-[α-MeLys]-[Lys(Ac)]-NG-NH2] | 100 to 1000 |  |  |  |
| Ac-[Abu]QTWQC[Phe(4-OMe)(3)][2Nal][αMeK]K(Ac)NG-NH2 (thioether 1-6) [Ac-Cyclo-[[Abu]-QTWQC]-[Phe(4-OMe)]-[2-Nal][α-MeLys]-[Lys(Ac)]-NG-NH2] |  |  |  | IC50 (Rat IL-23R_huFC [4]): 10 to 25 nM |
| XQTWQXFXKKNG (N-terminal 4-methylmorpholine-2,6-dione; Pen-Pen disulfide; Phe(4-OMe); 2-Nal; α-MeLys; Lys(Ac); NH2) [4-methylmorpholine-2,6-dione-[Pen]-QTWQ[Pen]-[Phe(4-OMe)]-[2-Nal]-[α-MeLys]-[Lys(Ac)]-NG-NH2] | 25 to 100 |  |  |  |
| XQTWQXFXKKNG (Ac; Pen-Pen disulfide; Phe[4-(2-aminoethoxy)]; 2-Nal; α-MeLys; Lys(Ac); NH2) [Ac-[Pen]-QTWQ-[Pen]-[Phe[4-(2-aminoethoxy)]-[2-Nal]-[α-MeLys]-[Lys(Ac)]-NG-NH2] | 25 to 100 |  |  |  |
| Ac-[Abu]QTWQC[AEF][2Nal][αMeK]K(Suc)NG-NH2 (thioether 1-6) [Ac-Cyclo-[[Abu]-QTWQC]-[Phe[4-(2-aminoethoxy)]]-[2-Nal]-[α-MeLys]-[Lys(succinic acid)]-NG-NH2] |  |  |  | IC50 (Rat IL-23R_huFC [4]): 10 to 25 nM |
| Ac-[Abu]QTWQC[AEF]W[Aib]ENG-NH2 (thioether 1-6) [Ac-Cyclo-[[Abu]-QTWQC]-[Phe[4-(2-aminoethoxy)]]-W-[Aib]-ENG-NH2] |  | < 10 | 10 to 25 |  |
| Ac-[Abu]QTWQC[Phe(4-OMe)][2Nal][Aib]K(Ac)NG-NH2 (thioether 1-6) [Ac-Cyclo-[[Abu]-QTWQC]-[Phe(4-OMe)]-[2-Nal]-[Aib]-[Lys(Ac)]-NG-NH2] |  | < 10 | 10 to 25 | IC50 (Rat IL-23R_huFC [6]): 25 to 100 nM |
| Ac-[2Nal][Abu]QTWQC[AEF][2Nal][αMeK]ENN-NH2 (thioether 2-7) [Ac-[2-Nal]-Cyclo-[[Abu]-QTWQC]-[Phe[4-(2-aminoethoxy)]]-[2-Nal]-[α-MeLys]-ENN-NH2] |  | < 10 |  | IC50 (IL23R_huFC [2]): < 10 nM; IC50 (Rat IL-23R_huFC [4]): 10 to 25 nM |

Further lines, with some results ahead:

| IC50 (Rat IL-23R_huFC [1]) [nM] | pStat3 HTRF IC50 [3] [nM] | IC50 (IL23R_huFC [5]) [nM] | Binder | other results |
| --- | --- | --- | --- | --- |
|  | < 10 | 10 to 25 | Ac-[Abu]QTWQC[AEF][2Nal][αMeK][Dap](pGlu)NG-NH2 (thioether 1-6) [Ac-Cyclo-[[Abu]-QTWQC]-[Phe[4-(2-aminoethoxy)]]-[2-Nal]-[α-MeLys]-[Dap(pyroglutamic acid)]-NG-NH2] |  |
|  |  | 10 to 25 | Ac-[Abu]QTWQC[AEF][2Nal][αMeK][Dap]([PEG2′-Ac])NG-NH2 (thioether 1-6) [Ac-Cyclo-[[Abu]-QTWQC]-[Phe[4-(2-aminoethoxy)]]-[2-Nal][α-MeLys]-[Dap(PEG2-Ac)]NG-NH2] |  |
|  | < 10 | 10 to 25 | XQTWQCFWXENG (as bracketed in name; thioether cyclo) [Ac-Cyclo-[[Abu]-QTWQC]-[Phe[4-(2-aminoethoxy)]]-W-[α-Me-Orn]-ENG-NH2] |  |
|  | < 10 | 10 to 25 | Ac-[Abu]QTWQC[AEF][2Nal][Aib]K(Ac)QG-NH2 (thioether 1-6) [Ac-Cyclo-[[Abu]-QTWQC]-[Phe[4-(2-aminoethoxy)]]-[2-Nal]-[Aib]-[Lys(Ac)]-QG-NH2] |  |
|  | < 10 | 10 to 25 | Ac-[Abu]QTWQC[AEF][2Nal][Aib]EK(Ac)G-NH2 (thioether 1-6) [Ac-Cyclo-[[Abu]-QTWQC]-[Phe[4-(2-aminoethoxy)]]-[2-Nal]-[Aib]-E-[Lys(Ac)]-G-NH2] |  |

From patent publication US20190300590A1 (PROTAGONIST THERAPEUTICS, published 2019)
